Laboratory results published in the supplement of paper PMC11316812.
± gives the standard deviation of the averaged measurements.

Key:
hTERT-HMEC = assay: percentage of EdU-negative (G0-arrested) nuclei per well, 72 h; higher = more G0 arrest; settings: reference: sequence is the full UniProt precursor, the tested protein was the secreted form or ectodomain
MCF7 = assay: as above; settings: reference: sequence is the full UniProt precursor, the tested protein was the secreted form or ectodomain
[1] = protein concentration 0.0225 µM
[2] = protein concentration 0.02625 µM
[3] = protein concentration 0.2625 µM
[4] = protein concentration 0.0125 µM
[5] = protein concentration 0.0305714 µM
[6] = protein concentration 0.305714 µM
[7] = protein concentration 0.03125 µM
[8] = protein concentration 0.3125 µM
[9] = protein concentration 0.0257143 µM
[10] = protein concentration 0.257143 µM
[11] = protein concentration 0.0357143 µM
[12] = protein concentration 0.357143 µM
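Also: secreted proteins added to cultured cells, EdU pulse at the end, nuclei found by Hoechst imaging, EdU status from nuclear versus surrounding ring intensity ratio, PBS as neutral control.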

MMQKLLKCSRLVLALALILVLESSVQGYPTRRARYQWVRCNPDSNSANCLEEKGPMFELLPGESNKIPRLRTDLFPKTRIQDLNRIFPLSEDYSGSGFGSGSGSGSGSGSGFLTEMEQDYQLVDESDAFHDNLRSLDRNLPSDSQDLGQHGLEEDFML
percentage of EdU-negative (hTERT-HMEC; [1]): 5.29 ± 0.12% | percentage of EdU-negative (hTERT-HMEC; protein concentration 0.225 µM): 5.72 ± 0.97% | percentage of EdU-negative (MCF7; [1]): 24.3 ± 3.3% | percentage of EdU-negative (MCF7; protein concentration 0.225 µM): 26 ± 1.7%

MAAHLLPICALFLTLLDMAQGFRGPLLPNRPFTTVWNANTQWCLERHGVDVDVSVFDVVANPGQTFRGPDMTIFYSSQLGTYPYYTPTGEPVFGGLPQNASLIAHLARTFQDILAAIPAPDFSGLAVIDWEAWRPRWAFNWDTKDIYRQRSRALVQAQHPDWPAPQVEAVAQDQFQGAARAWMAGTLQLGRALRPRGLWGFYGFPDCYNYDFLSPNYTGQCPSGIRAQNDQLGWLWGQSRALYPSIYMPAVLEGTGKSQMYVQHRVAEAFRVAVAAGDPNLPVLPYVQIFYDTTNHFLPLDELEHSLGESAAQGAAGVVLWVSWENTRTKESCQAIKEYMDTTLGPFILNVTSGALLCSQALCSGHGRCVRRTSHPKALLLLNPASFSIQLTPGGGPLSLRGALSLEDQAQMAVEFKCRCYPGWQAPWCERKSMW
percentage of EdU-negative (hTERT-HMEC; [1]): 5.35 ± 0.22% | percentage of EdU-negative (hTERT-HMEC; protein concentration 0.225 µM): 5.55 ± 0.18% | percentage of EdU-negative (MCF7; [1]): 26.3 ± 0.86% | percentage of EdU-negative (MCF7; protein concentration 0.225 µM): 26 ± 1.1%

MAAAASPAILPRLAILPYLLFDWSGTGRADAHSLWYNFTIIHLPRHGQQWCEVQSQVDQKNFLSYDCGSDKVLSMGHLEEQLYATDAWGKQLEMLREVGQRLRLELADTELEDFTPSGPLTLQVRMSCECEADGYIRGSWQFSFDGRKFLLFDSNNRKWTVVHAGARRMKEKWEKDSGLTTFFKMVSMRDCKSWLRDFLMHRKKRLEPTAPPTMAPGLAQPKAIATTLSPWSFLIILCFILPGI [Q9BZM4]
percentage of EdU-negative (hTERT-HMEC; [2]): 5.34 ± 0.19% | percentage of EdU-negative (hTERT-HMEC; [3]): 4.8 ± 0.37% | percentage of EdU-negative (MCF7; [2]): 25.38 ± 0.21% | percentage of EdU-negative (MCF7; [3]): 27.9 ± 1.3%

MVLLLLVAIPLLVHSSRGPAHYEMLGRCRMVCDPHGPRGPGPDGAPASVPPFPPGAKGEVGRRGKAGLRGPPGPPGPRGPPGEPGRPGPPGPPGPGPGGVAPAAGYVPRIAFYAGLRRPHEGYEVLRFDDVVTNVGNAYEAASGKFTCPMPGVYFFAYHVLMRGGDGTSMWADLMKNGQVRASAIAQDADQNYDYASNSVILHLDVGDEVFIKLDGGKVHGGNTNKYSTFSGFIIYPD [Q86Z23]
percentage of EdU-negative (hTERT-HMEC; [4]): 4.79 ± 0.17% | percentage of EdU-negative (hTERT-HMEC; protein concentration 0.125 µM): 6.46 ± 0.13% | percentage of EdU-negative (MCF7; [4]): 23.6 ± 0.38% | percentage of EdU-negative (MCF7; protein concentration 0.125 µM): 27.2 ± 2.1%

MARMGLAGAAGRWWGLALGLTAFFLPGVHSQVVQVNDSMYGFIGTDVVLHCSFANPLPSVKITQVTWQKSTNGSKQNVAIYNPSMGVSVLAPYRERVEFLRPSFTDGTIRLSRLELEDEGVYICEFATFPTGNRESQLNLTVMAKPTNWIEGTQAVLRAKKGQDDKVLVATCTSANGKPPSVVSWETRLKGEAEYQEIRNPNGTVTVISRYRLVPSREAHQQSLACIVNYHMDRFKESLTLNVQYEPEVTIEGFDGNWYLQRMDVKLTCKADANPPATEYHWTTLNGSLPKGVEAQNRTLFFKGPINYSLAGTYICEATNPIGTRSGQVEVNITEFPYTPSPPEHGRRAGPVPTAIIGGVAGSILLVLIVVGGIVVALRRRRHTFKGDYSTKKHVYGNGYSKAGIPQHHPPMAQNLQYPDDSDDEKKAGPLGGSSYEEEEEEEEGGGGGERKVGGPHPKYDEDAKRPYFTVDEAEARQDGYGDRTLGYQYDPEQLDLAENMVSQNDGSFISKKEWYV
percentage of EdU-negative (hTERT-HMEC; [1]): 4.56 ± 1.1% | percentage of EdU-negative (hTERT-HMEC; protein concentration 0.225 µM): 4.77 ± 0.62% | percentage of EdU-negative (MCF7; [1]): 25.4 ± 4.4% | percentage of EdU-negative (MCF7; protein concentration 0.225 µM): 23.9 ± 2.4%

MKHSLNALLIFLIITSAWGGSKGPLDQLEKGGETAQSADPQWEQLNNKNLSMPLLPADFHKENTVTNDWIPEGEEDDDYLDLEKIFSEDDDYIDIVDSLSVSPTDSDVSAGNILQLFHGKSRIQRLNILNAKFAFNLYRVLKDQVNTFDNIFIAPVGISTAMGMISLGLKGETHEQVHSILHFKDFVNASSKYEITTIHNLFRKLTHRLFRRNFGYTLRSVNDLYIQKQFPILLDFKTKVREYYFAEAQIADFSDPAFISKTNNHIMKLTKGLIKDALENIDPATQMMILNCIYFKGSWVNKFPVEMTHNHNFRLNEREVVKVSMMQTKGNFLAANDQELDCDILQLEYVGGISMLIVVPHKMSGMKTLEAQLTPRVVERWQKSMTNRTREVLLPKFKLEKNYNLVESLKLMGIRMLFDKNGNMAGISDQRIAIDLFKHQGTITVNEEGTQATTVTTVGFMPLSTQVRFTVDRPFLFLIYEHRTSCLLFMGRVANPSRS
percentage of EdU-negative (hTERT-HMEC; [5]): 6.41 ± 0.77% | percentage of EdU-negative (hTERT-HMEC; [6]): 22.5 ± 9.3% | percentage of EdU-negative (MCF7; [5]): 27.6 ± 0.28% | percentage of EdU-negative (MCF7; [6]): 30 ± 1.5%

MWPLWRLVSLLALSQALPFEQRGFWDFTLDDGPFMMNDEEASGADTSGVLDPDSVTPTYSAMCPFGCHCHLRVVQCSDLGLKSVPKEISPDTTLLDLQNNDISELRKDDFKGLQHLYALVLVNNKISKIHEKAFSPLRKLQKLYISKNHLVEIPPNLPSSLVELRIHDNRIRKVPKGVFSGLRNMNCIEMGGNPLENSGFEPGAFDGLKLNYLRISEAKLTGIPKDLPETLNELHLDHNKIQAIELEDLLRYSKLYRLGLGHNQIRMIENGSLSFLPTLRELHLDNNKLARVPSGLPDLKLLQVVYLHSNNITKVGVNDFCPMGFGVKRAYYNGISLFNNPVPYWEVQPATFRCVTDRLAIQFGNYKK
percentage of EdU-negative (hTERT-HMEC; [7]): 4.62 ± 0.74% | percentage of EdU-negative (hTERT-HMEC; [8]): 7.32 ± 0.21% | percentage of EdU-negative (MCF7; [7]): 25.3 ± 1.7% | percentage of EdU-negative (MCF7; [8]): 25.1 ± 3.1%

MGRDLRPGSRVLLLLLLLLLVYLTQPGNGNEGSVTGSCYCGKRISSDSPPSVQFMNRLRKHLRAYHRCLYYTRFQLLSWSVCGGNKDPWVQELMSCLDLKECGHAYSGIVAHQKHLLPTSPPISQASEGASSDIHTPAQMLLSTLQSTQRPTLPVGSLSSDKELTRPNETTIHTAGHSLAAGPEAGENQKQPEKNAGPTARTSATVPVLCLLAIIFILTAALSYVLCKRRRGQSPQSSPDLPVHYIPVAPDSNT [Q9H2A7]
percentage of EdU-negative (hTERT-HMEC; [9]): 4.5 ± 0.52% | percentage of EdU-negative (hTERT-HMEC; [10]): 4.18 ± 0.16% | percentage of EdU-negative (MCF7; [9]): 25.9 ± 0.7% | percentage of EdU-negative (MCF7; [10]): 25.9 ± 2.8%

MKVSVAALSCLMLVAVLGSQAQFTNDAETELMMSKLPLENPVVLNSFHFAADCCTSYISQSIPCSLMKSYFETSSECSKPGVIFLTKKGRQVCAKPSGPGVQDCMKKLKPYSI
percentage of EdU-negative (hTERT-HMEC; [11]): 4.77 ± 0.69% | percentage of EdU-negative (hTERT-HMEC; [12]): 4.52 ± 1.2% | percentage of EdU-negative (MCF7; [11]): 24.9 ± 0.52% | percentage of EdU-negative (MCF7; [12]): 25.2 ± 0.81%
